# Key:
# [1] = molecular target: T1, PAX3::FOXO1 fusion protein (UniProt P23760 1-391+Q12778:211-655, internal_change); assay: SPR; SPR, Biacore T-200, CM5 chip; PBS-P (20 mM phosphate pH 7.4, 137 mM NaCl, 2.7 mM KCl, 0.05% P20) stated as immobilization running buffer, with 5% DMSO for small molecules; temperature not stated; conditions: protein: recombinant; tags: C-terminal 12xHis; N-terminal internal HA tag; blunt
# [2] = molecular target: T1, PAX3::FOXO1 fusion protein; assay: SPR; DNA 1.25-80 nM; SPR, Biacore T-200, CM5 chip; PBS-P (20 mM phosphate pH 7.4, 137 mM NaCl, 2.7 mM KCl, 0.05% P20) stated as immobilization running buffer, with 5% DMSO for small molecules; temperature not stated; conditions: protein: recombinant; tags: C-terminal 12xHis; N-terminal internal HA tag; blunt
# T1 sequence (P23760 other isoform, or with tags, fused parts or gaps): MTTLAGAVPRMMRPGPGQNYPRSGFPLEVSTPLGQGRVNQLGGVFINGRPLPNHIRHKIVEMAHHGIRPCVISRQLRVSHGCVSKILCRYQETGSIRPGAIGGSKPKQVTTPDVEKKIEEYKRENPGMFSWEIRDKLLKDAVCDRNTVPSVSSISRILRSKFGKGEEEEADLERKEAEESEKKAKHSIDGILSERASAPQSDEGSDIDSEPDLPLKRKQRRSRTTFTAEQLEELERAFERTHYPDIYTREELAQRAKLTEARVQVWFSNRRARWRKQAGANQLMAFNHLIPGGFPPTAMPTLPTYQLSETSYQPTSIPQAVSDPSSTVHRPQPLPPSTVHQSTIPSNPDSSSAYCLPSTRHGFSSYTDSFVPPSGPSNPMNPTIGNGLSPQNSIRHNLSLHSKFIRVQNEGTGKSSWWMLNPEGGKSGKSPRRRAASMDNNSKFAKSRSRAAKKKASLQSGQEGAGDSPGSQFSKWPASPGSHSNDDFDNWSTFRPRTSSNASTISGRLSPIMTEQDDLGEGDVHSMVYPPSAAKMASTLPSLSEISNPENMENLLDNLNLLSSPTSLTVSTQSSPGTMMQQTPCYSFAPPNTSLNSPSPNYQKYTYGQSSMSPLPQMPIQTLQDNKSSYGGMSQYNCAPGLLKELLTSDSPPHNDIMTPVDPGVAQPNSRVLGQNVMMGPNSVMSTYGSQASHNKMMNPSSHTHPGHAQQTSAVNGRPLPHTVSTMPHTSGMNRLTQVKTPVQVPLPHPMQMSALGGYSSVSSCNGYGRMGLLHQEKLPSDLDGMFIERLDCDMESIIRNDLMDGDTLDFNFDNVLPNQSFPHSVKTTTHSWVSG
binder,measurement,setting,value
PAX3::FOXO1-specific oligonucleotide (dsDNA) DNA 1: ACCGTGACTAATTTAATTAGTCACG DNA 2: CGTGACTAATTAAATTAGTCACGGT,Kd,[1],6.3 nM
EWS::FLI1-specific oligonucleotide (GGAA repeats) (dsDNA) DNA 1: ACCGGAAGGAAGGAAGGAAGGAAGGAAGGAAGTG DNA 2: CACTTCCTTCCTTCCTTCCTTCCTTCCTTCCGGT,binding result,[2],no binding

# Reference: PMC10557868, “Piperacetazine Directly Binds to the PAX3::FOXO1 Fusion Protein and Inhibits Its Transcriptional Activity”
